Assay [1] deals with Ovr110-HA on stably transfected mouse LMTK cells (human) (UniProt Q7Z7D3). The experiment in a line: FACS on Ovr110-HA transfected mouse LMTK cells, secondary antibody alone.
For assay [2] the target is unchanged. The experiment in a line: FACS on Ovr110-HA transfected mouse LMTK cells, secondary antibody alone, gate I.

Take Donkey Anti-Mouse Ig-PE (antibody): in assay [1], the Mean of Fluorescence turned out to be 0.48. Also, the Percentage of cells in assay [2] was 0.6.

The values are drawn from US20070178101A1.
